Literature values, collected in paper PMC11313252.

Molecular target: EGFR (Homo sapiens) (UniProt P00533)

For EGF (from UniProt P01133), which Kd is on record?
Its Kd is 2 nM.
